Experiment: label from the status in PepcDB records

| Sequence | protein production |
| --- | --- |
| MSPVVIAVVGVVVLLVLLALVVVSRYKVAGPSEAFIVTGRRGKRSTDPETGRVFTDNSGQKVVVGGGVFVVPFVQQRFTLDLSSRHIPVAVRGAVTLRGVKANLEGVAIVKVGGTEDAIRAAAQRFLMQQDGIVGFTQEVLSGALRAIVGRMSVEDVIRDRAAFAGQVAEEAEASLSGQGLVLDAFQIQDITTEGSYLEDLGRPEAARAKQEADIAEAVARRAAEQARLKAEEEIAVAQRTLYLKQAEIKAETDQAEARANASGPLAEAARQQDILAEQEKVAERQAALKDRQLDTEVRKPADAQRYAAEQEAEARRVARVKQAEAERAAGIAAAQAEAERARLTGEGEKQRRSALADAVRLEGDAEAAAIGAKGAAEAEAMEKKADAFDRYGDAAVLQMLVEVLPQVVAKASEPLAAVDKMTVISTDGASRLTRTVADNVAQGMELLGSTTGVDLTSLLKGITAKEGITAKGEAGRATTENGKVEITDLEHHHHHH | not failed |
| MSQAISLNQSTWASKLKAMGPGILMATAAVGGSHIVSSTQAGGSYGWSLLLLVILANVFKYPFFRFGAEYTADTGKTLVEGYAEKGKLYLWIFFILNVFSAMVNTAGVAILCSAIIASAFPMIGLSITQWSLILVAIIWAMLLFGGYKLLDGMVKWIMSALTIATVLAVIIAAVKHPEYSSDFVEKTPWQMAALPFIVSLLGWMPAPIEISAINSLWSAEKRKTVNFNTEDALFDFNTGYIGTAILAVFFVALGALIQYPTGQAVEAASAKYISQFVGMYASVLGEWSRYLITFIAFLCIFGTVITVIDGYSRVNQESLRLLISQKEDNRKSLNIWMTITAIIGIVIIKFFAGQVSTMLRFAMIGSFLTTPFFALLNYALVTRENKNLPSWLKHLAIAGLIFLFGFAIFFIYALAIGKAG | failed |
| MSQATAKVNREVQAFLQDLKGKTIDHVFFVACGGSSAIMYPSKYVFDRESKSINSDLYSANEFIQRNPVQLGEKSLVILCSHSGNTPETVKAAAFARGKGALTIAMTFKPESPLAQEAQYVAQYDWGDEALAINTNYGVLYQIVFGTLQVLENNTKFEQAIEGLDQLQAVYEKALKQEADNAKQFAKAHEKESIIYTMASGANYGVAYSYSICILMEMQWIHSHAIHAGEYFHGPFEIIDESVPFIILLGLDETRPLEERALTFSKKYGKKLTVLDAASYDFTAIDDSVKGYLAPLVLNRVLRSYADELAEERNHPLSHRRYMWKVEY | not failed |
| MSQAVLATETNRRQLQQIISGLSDGVILIETDKARTLLWANEAALAMHGVSTVEQLGGNLREYARRYALRYRNNHPLGLDSYPINRVAAGETFSDVVVEVQAEIDGEPRHWVHRVRSMILEDRNGAPESLVLILSDATDWASAEQRFEKTFNANPAPAVICRLGDLRYIKVNQGFLEMTGYARDQVIGRSVYELDVLEDAEHKELAVERLGQGATIPQMQAELRLPEGGSKLVIVAGQPLDINDEDCMLFSFMDLEPRRKAEIALRQSEERFAKSFRLTPVPTLVCSAEQQIVDVNEAFLDTCGYSSEELLGKTVQDIGFIAEPQAAEQLFGRLEKSGNVMGLDLKVRKKGAEQVDCVAYADTVLIQDSPCYLLVLMDISERKRSELELVGAIEEVMRDASWFSQTLIEKLANVRNTRSAQAPAVTSAELTTREREVLGLIYQGLADKEIAAQLQLAPNTVRNHVATLYSKLDVHSRGEAIVWARERGLFAGSAG | failed |
| MSQEYTEDKDVTLTKLSSGRRLLEALLILIALFAVWLMAALLSFNPSDPSWSQTAWHEPIHNLGGAPGAWLADTLFFIFGVMAYTIPVIIVGGCWFAWRHQSTDDYIDYFAVSLRLIGVLALILTSCGLAAINADDIWYFASGGVIGSLLSTTLQPLLHSSGGTIMLLCIWAAGLTLFTGWSWVSIAEKLGGWLLNILTFASNRTRRDDTWVDDEEYDDEYDEETDGVQRESRRARILRGALARRKRLAEKFSNPRGRQTDAALFSGKRMDDDEDIQYSARGVAADPDDVLFSGNRATQPEYDEYDPLLNGHSVTEPVAAAAAATAVTQTWAASADPIMQTPPMPGAEPVVAQPTVEWQPVPGPQTGEPVIAPAPEGYQPHPQYAQPQEAQSAPWQQPVPVASAPQYAATPATAAEYDSLAPQETQPQWQAPDAEQHWQPEPTHQPEPIAAEPSHMPPPVIEQPVTTEPEPGIEETRPARPPLYYFEEVEEKRAREREQLAAWYQPIPEPVKENVPVKPTVSVAPSIPPVEAVAAAASLDAGIKSGALAAGAAAAAPAFSLATGGAPRPQVKEGIGPQLPRPNRVRVPTRRELASYGIKLPSQRIAEEKAREAERNQYETGVQLTDEEIDAMHQDELARQFAQSQQHRYGETYQHDTQQAEDDDTAAEAELARQFAASQQQRYSGEQPAGAQPFSLDDLDFSPMKVLVDEGPHEPLFTPGVMPESTPVQQPVAPQPQPQYQQSQQPVAPQSQYQQPQQPVAPQPQPQYQQSQQPVAPQSQYQQPQQPVAPQPQYQQPQQPVAPQPQYQQPQQPTAPQPQYQQPVAPQPQYQQPQQPVAPQPQYQQPQQPTAPQDSLIHPLLMRNGDSRPLQRPTTPLPSLDLLTPPPSEVEPVDTFALEQMARLVEARLADFRIKADVVNYSPGPVITRFELNLAPGVKAARISNLSRDLARSLSTVAVRVVEVIPGKPYVGLELPNKKRQTVYLREVLDNAKFRENPSPLTVVLGKDIAGDPVVADLAKMPHLLVAGTTGSGKSVGVNAMILSMLYKAQPEDVRFIMIDPKMLELSVYEGIPHLLTEVVTDMKDAANALRWSVNEMERRYKLMSALGVRNLAGYNEKIAEAARMGRPIPDPYWKPGDSMDVQHPVLEKLPYIVVLVDEFADLMMTVGKKVEELIARLAQKARAAGIHLVLATQRPSVDVITGLIKANIPTRIAFTVSSKIDSRTILDQGGAESLLGMGDMLYSGPNSTMPVRVHGAFVRDQEVHAVVQDWKARGRPQYVDGITSDSESEGGGGGFDGGEELDALFDQAVNFVTQKRKASISGVQRQFRIGYNRAARIIEQMEAQGIVSAQGHNGNREVLAPPPFE | failed |
| MSQKGEAEGIARIRSAALFYIVAILITLVAVFAVFIPLIVSISSISSNLSNPNASSASAAAGGILSAVIGVIVVAVIVSIVILVFIILSFLRFRDGFSILQAIGRDVGIGKTGTTLILVGAILLIIPFLDIIGIILIFVGQILLGIGIYRIGEIYNNSLTKIGGILVAIPLIDITAFIGMIMTYVGVGQIQREFGMRPPLPPSSQIPSQQTGSGVLRGNGTADLNIYLQTQEQVVSAQILGTNYLTGLIVPNMLQPGFNNLTVNFNVPLNLMPNSIYVIRLNLASGRTLDVNVTFQP | failed |
| MSQLPAWPRITRESTAMYHLRVPQTEEELERYYQFRWEMLRKPLHQPKESERDGWDALAHHQIVVDEEGNLVAVGRLYINADNEASIRFMAVHPSVQDKGLGTLMAMTLESVARQEGVKRVTCSAREDAVEFFAKLGFVNQGEITTPTTTPIRHFLMIKPVASLDDILHRGDWCGQLQQAWYEHIPLSEKMGVRIQQYTGQKFITTMPETGNQNPHHTVFAGSLFSLATLTGWGLIWLMLRERHLGGTIILADAHIRYSKPISGKPNAVADLGSLSGDLDRLARGKKARVQLQVELLGGETAGAIFEGIYIVLPAKPFGPYEEGGNEEE | failed |
| MSQLTFWFGCALVALIAEFVSGTFYLLMVALALACGGFAAWLGAPEPWQWLIASVSGAVGLLAIHRRRRSLMPPPPPQDDPDWGQQVEIRALTTPGHARIHYRGAEWDALLMDSRLDAGSTGYISGREGNLFKISSQQPQ | failed |
| MSQMSPGQARVVDPILSTHARGYRQSTLIGKKLFPVAPVAQYGGKILTFGKEAFRLYNTKRAPGANTKRIDFGYEGDPYSIVPSALEAKVPRELMRDASQVPGIDLGARSVNTVLRIMALAHEHECAQIALDPAKYNADHKVKLVGSARWTSPDSDPTKDVETAKEAIADSIGMEPNRLMLSRKALSACKYHPKLIERVKYTRAESITIDMLKALWEVEEIVVGTARVATGANDSFGDVWGPDVWLGYVSDNPDPSVEEPSFGYTYQIEGHPLVEVPYWDNNAKSWIYGVSDDNTPALSGMLAGYLIEDAGLPAALEHHHHHH | not failed |
| MSQPLNVAVVGATGSVGEALVGLLDERDFPLHRLHLLASAESAGQRMGFAESSLRVGDVDSFDFSSVGLAFFAAAAEVSRAHAERARAAGCSVIDLSGALEPSVAPPVMVSVNAERLASQAAPFLLSSPCAVAAELCEVLAPLLATLDCRQLNLTACLSVSSLGREGVKELARQTAELLNARPLEPRLFDRQIAFNLLAQVGAVDAEGHSAIERRIFAEVQALLGERIGPLNVTCIQAPVFFGDSLSVTLQCAEPVDLAAVTRVLDATKGIEWVGEGDYPTVVGDALGQDETYVGRVRAGQADPCQVNLWIVSDNVRKGAALNAVLLGELLIKHYL | not failed |
| MSQPRNRWIVQLILALAVLAFVGVSVVPIIGALNDNTSPSNQNSASNQGDSLASNQQSKLADEVRGYELVLQREPENQTALKGLLQARLQLLALKQGNVQSVIEPLEKLAKLNPNQSEYGVLLAQAKQQIGDKEGAATAYRSILDTKPGDLKALQGMVVLLLDQQRPEAAVGLLQDTLTNAAQANTIQPGSVDVVAVQVLLGNVHAAQKRYPQAISAFDQAIQKDTKDFRPVLAKAMLLKQQGKATEAKPLFDSALALAPAQYKDEINKAATVSPAPAPPAPPAPTPESTPKQ | failed |
| MSQQQKQYDIHWLTGQFFDSSKESRYRDSIKARVRFESRLALPLVSVVVAMFGITDYNLLGLTREFYWLLTMRIAVVSSCLVLAFAIGRWGGYSRNAWLHSLPLWILATGIILIVPLRPESISTQITAVVVAIMAFYLLIPNLLTVAALASLYLTVGFLSAAAVYAGIPSENVLRVSLLLIMANIVGYCALLRIEFLQRKQFALLQDERDQNRDLLKEIKHRKSLEAQLRMVAERDALTGLDSRSHFMKRAEALLQRAQLEKTPFCLFMIDVDHFKRINDTWGHTRGDLILTKIAEVCEQSLRPTDVIGRFGGEEFVVGLPHTSPSEAQTIAERLKENVEALPLTAELSELCLSVTIGIAAAHGEEDDLDVLITRADNMLYEGKREGRNRVVMFGEGMDS | failed |
| MSQRVSPTLIGLFVVGALALGVVGVGAFGSGQFFEQRTTFISYFDESVNGLDVGAPVKFKGVPIGEVTDINLRVDLENETFQVPVQYAINLDPVTDTTGARLNLDDPTLLRDQIEDGLRAQLQLESIVTGKLYVELTYISDPDSAVYAQGPPSRLSIPTELSPLAKLGEGASGLVTNLRQFDVTQINENLVTFLVNANDKLEALDAEAINRSALSTIESVRKVVESKEVRTALQDMPKATERLRATIKDAQALIQRLDRGVEPTADELEKTSRQLRATLKRMRRTMDEVDQTLSPNSGIGYQMNEALSNLSEATEALRVLVQSLERNPSMFLRGREEPPPSNQQ | failed |
| MSQTDELTGTANRRFVFAKLALQVEQVSKGLEAPFCLCTLDIDFFKQINDRFGHKCGDAVLRDFVGIAHSVIRRVDCFGRIGGEEFMLILPRSSIAEGREIVERLLQKVRLSRPLSEFPDFSYSCSAGMTVFRMMENADDVFMRADQALYAAKEKGRDRLLAVTLEHHHHHH | failed |
| MSQTTVVNGVNVDQLMATIEQIKAKPEIAQFKFRATNQWMGGTHNQATIKDFYGACAEDDTRKPMVFDLDEPPVLLGENRGANPVEYLLVALSGCLTTSLVAHAAARGIALRGVKSRYEGDIDLRGFLGLSEEVPVGYREIRVFFSIDADLTDGQKEELIRMAQKYSPVYNTVAKPVPVAVLLDRG | not failed |
| MSQWITEWIPQVMNQLGYGGISLLMFLENLFPPIPSELIMPLAGFAVAQGKLELFPAIVAGIIGTILGAYPWYYIGKWVSEERLEQLADRYGKWIGLDAKDIHKSNVWFGRYGHQSVFFGRLVPGIRTIVSLPAGVNAMGLISFTLYSLGGISLWVTFLASAGYKLGDHYELVEQYLGPVSKIVLVSIVAILVLLIVRKQLRRRA | failed |
| MSQYQRLLLIADPQQHQSPAARRAVALARASGAALHALVFVEPPARTYLWEEHLEDSEREAYLQRHERWLQVEAQWMAEEGVQVTTQVIWSTQVLKDMLAYIDEFRPDLLIKDVTLESALKRVFVTPLDCHLLREAPVPVHLVNDAPHKLPRRIVAAVDPAQSDTQIRGLNTQIIQTAHALALQCDAQLHLLYAYDLMPMLDGVAPVASTAWSVNCLDELRDSLHKEFERLGDEHNVPQEFRHFIMGPPVPGIAQFVDEYLVDVVVMGTVHRTGFGRLIGSTTERALYSMPGSILAVKASGAA | failed |
